From the supplement of paper PMC10567573

B1: CDS2 (parent)
chain: IHSIALSTFASLIGPFGGFFASGF
B2: MLL5 (parent)
chain: EQIAERKRKMVSWEASSLGLVTAA

Variants of: B1
Assay: protein stability index of a GFP-peptide fusion (GPS, HEK-293T) (PSI 1-6); higher = more stable
Settings: c terminus: a fixed tail appended
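Also: lentivirally expressed fusions sorted by FACS into six bins by GFP to DsRed ratio, PSI derived from sequencing read proportions per bin multiplied by bin number.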

Protein stability index, by site and new letter:
G14: P 2.67; W 1.74; Y 2.64; I 2.82
I4: H 2.91; T 3.82; P 3.8; Y 2.14; W 2.65
P15: T 3.98; D 3.92; W 2.2
H2: M 2.79; C 4.54; Q 2.43; E 1.8; T 3.98; S 2.03
F20: H 2.66; L 2.98; I 2.13; N 2.68; T 3.03
L12: I 2.76; N 2.95
I13: F 3.52; T 2.77; A 2.25
A5: R 3.68; G 2.93; Y 2.88; P 2.54; M 2.14
F19: R 2.72; H 2.47; S 2.78; D 3.49; T 3.17; W 3.48; K 3.44
F9: P 2.63; S 3.33; L 3.88; H 1.51
S3: D 3.74; I 3.44; Q 2.4; T 2.8
L6: V 3.03; N 2.62; D 3.13; R 1.67; C 2.06; E 4.38; Q 2.28
F16: H 2.84; R 2.29; P 2.02; M 3.82
S22: V 2.54; I 2.2; T 2.96; N 2.57; R 3.24; G 3.59; W 2.44; K 1.71; L 2.7
S11: A 2.88; Y 4.15; M 3.71; N 2.33; I 3.73
G23: V 2.14; M 3.23; Q 2.79; Y 2.63; E 4.01; K 2.05; D 2.37
I1: L 2.63; S 2.57; Y 3.05; H 2.21; C 3.03
G17: K 2.22; T 4.3; S 4.37; I 2.98; L 3.48; C 3.58
S7: A 2.22; Q 2.64; M 3.09; N 2.5
T8: N 3.16
G18: E 2.89; P 2.83; F 3.59; Y 3.62; K 2.86; C 2.46; D 4.39; I 3.04
A10: C 2.97; W 3.06; V 3.29; L 2.98
F24: P 3.79; T 3.42; Q 2.45
A21: R 2.9; F 2.83; Q 3.25; I 3; Y 3.42; V 2.06

Variants of: B2
Assay: as above
Settings: c terminus: a fixed tail appended

Protein stability index, by site and new letter:
E5: I 2.33; G 2.95; W 1.8; S 2.13; N 2.07; V 2.44; F 2.68; P 3.01; C 1.87; H 2.12; D 3.49; A 2.25; Q 2.79; K 3.08
E14: A 2.8; L 2.95; H 2.85; F 1.97; C 2.49; Q 2.32; I 2.22; D 2.07; V 1.97; N 3.39; P 2.44; S 2.47; M 2.24; G 2.2; R 2.31; Y 2.52; T 3
W13: M 3.07; Y 3.29; H 3.97; Q 4.56; P 4.38; G 4.82; V 4; D 4.67; A 4.19; K 3.85; S 4.33; E 4.77; L 3.86; N 4.02; T 3.77
R8: F 2.01; I 2.66; V 2.65; H 3.64; P 3.25; K 3.56; S 2.97; T 3.89; E 3.98; W 2.72; M 3.17; C 2.76; A 3.81; D 2.85; Y 2.86; N 2.82; L 2.79
I3: F 2.72; V 3.63; K 3.1; P 3.56; T 3.88; G 3.29; L 3.07; Y 3.14; A 3.18; E 2.29; S 3.05; D 4.19; C 2.46; N 3.64; H 3.7; Q 3.09; R 2.76
R6: I 1.65; L 2.65; M 2.88; Q 2.76; N 3; K 3.18; E 3.56; G 3.38; Y 2.78; W 2.09; T 3.54; A 4.14; H 2.98; F 2.67; C 3.24; D 3.98
V11: D 2.81; E 4.18; G 3.39; S 2.99; H 3.24; M 2.54; Q 3.16; C 2.87; F 2.63; P 3.55; L 2.63; T 2.87; W 3.34; Y 3.14
Q2: V 2.79; A 2.75; N 2.37; T 3.25; M 2.21; C 1.97; H 2.68; F 2.58; P 2.84; D 3.66; S 2.55; K 3.05
A4: H 3.39; Y 2.8; S 3.34; K 3.36; P 3.85; R 3.59; D 3.67; I 2.38; L 2.95; Q 2.34; V 2.56
E1: Y 2.41; F 1.42; K 4; I 2.78; L 2.53; P 3.16; A 2.18; R 2.77; V 2.55; M 2.41; G 3.27; N 3.06; T 2.67; Q 3.2; D 3.35; C 1.44; W 1.69
M10: L 3.56; A 3.83; Y 2.89; D 4.4; I 2.81; S 3.69; K 3.7; E 4.23; T 3.55; R 4.01; H 3.44; C 3.29; Q 3.95; F 2.93; N 3.5; V 2.82; G 4.16
S12: A 3.35; D 2.85; Q 2.33; N 3.19; Y 2.22; H 2.35; L 2.37; K 2.59; E 3.92; M 3.36; R 3.36; P 2.59; V 2.68; F 2.16; C 2.36
A15: H 3; E 3; K 2.74; C 2.28; I 2.56; F 2.08
K9: M 2.38; H 1.76; F 2.06; G 3.73; V 2.46; Q 2.59; E 3.52; R 3.06; A 2.52; L 2.27; Y 2.97; W 1.88; S 3.51; T 2.31; C 1.53; I 2.34; N 3.84
K7: Y 2.29; I 2.98; H 3.36; C 2.19; M 1.7; Q 3.21; G 2.93; E 4.03; V 3.02; T 2.69; L 1.97; F 2.74
